Laboratory results published in patent US20100041096.

Assays:
His-BARD1 1-320 = His-BARD1 1-320 (UniProt Q99728)
His-BARD1 14-189 = His-BARD1 14-189 (UniProt Q99728)
His-BARD1 14-189, sequence (Q99728 14-189): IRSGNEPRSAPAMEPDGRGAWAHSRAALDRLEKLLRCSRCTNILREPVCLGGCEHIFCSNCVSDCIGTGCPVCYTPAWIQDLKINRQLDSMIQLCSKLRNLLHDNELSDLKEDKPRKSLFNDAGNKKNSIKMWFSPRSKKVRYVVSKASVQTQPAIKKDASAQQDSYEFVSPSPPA

His-BARD1 1-320, sequence (Q99728 1-320): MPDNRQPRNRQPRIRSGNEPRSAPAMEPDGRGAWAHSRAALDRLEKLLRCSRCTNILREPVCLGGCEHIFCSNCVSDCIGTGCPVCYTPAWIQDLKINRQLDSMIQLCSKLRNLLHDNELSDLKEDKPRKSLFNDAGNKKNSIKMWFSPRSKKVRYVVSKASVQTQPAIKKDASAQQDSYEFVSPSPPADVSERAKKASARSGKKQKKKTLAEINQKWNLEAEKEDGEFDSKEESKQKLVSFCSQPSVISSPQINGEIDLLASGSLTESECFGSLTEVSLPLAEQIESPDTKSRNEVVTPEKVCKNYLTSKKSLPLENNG

Row | Substance | in vitro kinase assay ([gamma-32P]ATP, autoradiography) (His-BARD1 1-320) | in vitro kinase assay ([gamma-32P]ATP, autoradiography) (His-BARD1 14-189)
1 | CDK2-cyclin E1 | both His-BARD^14-180 and HA-BARD1^1-320 were phosphorylated in vitro with CDK2-cyclin E1 and CDK1-cyclinc B1 | both His-BARD^14-180 and HA-BARD1^1-320 were phosphorylated in vitro with CDK2-cyclin E1 and CDK1-cyclinc B1
2 | HA-CDK1-cyclin B1 | both His-BARD^14-180 and HA-BARD1^1-320 were phosphorylated in vitro with CDK2-cyclin E1 and CDK1-cyclinc B1 | both His-BARD^14-180 and HA-BARD1^1-320 were phosphorylated in vitro with CDK2-cyclin E1 and CDK1-cyclinc B1
